Laboratory results from the Human Domainome abundance scans (Beltran et al. 2025).
± gives the uncertainty stated by the source.

B1: Friend leukemia integration 1 transcription factor, residues 116 to 197; numbered along this chain, Q01543 (parent)
chain: NMTTNERRVIVPADPTLWTQEHVRQWLEWAIKEYSLMEIDTSFFQNMDGKELCKMNKEDFLRATTLYNTEVLLSHLSYLRES

Variants of: B1
Test: abundance fitness (aPCA) (normalised: wild type 0, dead -1); higher = more abundant; growth selection in yeast, the domain comes from the species named
Details: Homo sapiens

Abundance fitness of substitutions, site by site:
V9: N 0.18 ± 0.16 | C 0.046 ± 0.17 | I -0.122 ± 0.12 | S 0.212 ± 0.073 | L -0.045 ± 0.068 | Y -0.605 ± 0.46 | D -0.055 ± 0.3 | M -0.156 ± 0.095 | H 0.099 ± 0.34 | F -0.018 ± 0.2 | R 0.172 ± 0.059 | A 0.14 ± 0.075 | T 0.039 ± 0.098 | W 0 ± 0.091 | K 0.116 ± 0.098
D14: E 0.096 ± 0.12 | R -0.701 ± 0.12 | C -0.164 ± 0.15 | M -0.421 ± 0.14 | V -0.353 ± 0.1 | N -0.063 ± 0.21 | P -0.415 ± 0.26 | K -0.564 ± 0.19 | I -0.467 ± 0.24 | W -0.354 ± 0.14 | T -0.388 ± 0.12 | F -0.517 ± 0.22 | L -0.51 ± 0.091 | S -0.229 ± 0.17 | A -0.237 ± 0.1 | Y 0.011 ± 0.26 | Q 0.155 ± 0.27
E6: I -0.087 ± 0.15 | T -0.013 ± 0.13 | L 0.001 ± 0.068 | H -0.377 ± 0.49 | C -0.23 ± 0.39 | G -0.179 ± 0.09 | V -0.092 ± 0.082 | N -0.022 ± 0.17 | P -0.126 ± 0.091 | Q -0.174 ± 0.15 | S -0.028 ± 0.084 | F -0.435 ± 0.21 | Y -0.308 ± 0.21 | M -0.163 ± 0.15 | A -0.185 ± 0.095
N5: Q -0.228 ± 0.12 | K 0.004 ± 0.064 | F -0.089 ± 0.21 | M -0.127 ± 0.12 | D -0.011 ± 0.13 | P -0.017 ± 0.078 | H -0.06 ± 0.23 | E -0.039 ± 0.099 | R -0.042 ± 0.054 | C 0.019 ± 0.2 | G -0.042 ± 0.066 | T 0.056 ± 0.08 | S -0.152 ± 0.1 | Y -0.121 ± 0.12
Q20: A -0.126 ± 0.11 | N 0.218 ± 0.29 | P -0.454 ± 0.21 | M 0.046 ± 0.099 | R -0.077 ± 0.084 | G -0.057 ± 0.12 | Y -0.109 ± 0.4 | W -0.123 ± 0.11 | C -0.176 ± 0.29 | S 0.047 ± 0.052 | L -0.289 ± 0.08 | T -0.029 ± 0.06 | H 0.018 ± 0.35 | E -0.195 ± 0.14 | D -0.054 ± 0.18 | V -0.137 ± 0.078 | K 0.138 ± 0.19
P15: K -1.09 ± 0.31 | D -0.489 ± 0.18 | E -0.854 ± 0.13 | W -0.942 ± 0.16 | I -0.028 ± 0.085 | S -0.565 ± 0.085 | G -1.07 ± 0.12 | F -0.851 ± 0.18 | C -0.398 ± 0.076 | R -0.92 ± 0.096 | T -0.42 ± 0.08 | Y -0.512 ± 0.15 | H -0.892 ± 0.28 | Q -0.543 ± 0.13 | V -0.056 ± 0.048
P12: K -0.155 ± 0.12 | C -0.178 ± 0.15 | L -0.344 ± 0.098 | N -0.021 ± 0.27 | H -0.085 ± 0.11 | E 0.12 ± 0.15 | I -0.193 ± 0.32 | V -0.447 ± 0.1 | M -0.095 ± 0.12 | Y -0.227 ± 0.19 | A -0.186 ± 0.093 | F -0.225 ± 0.16 | R -0.053 ± 0.077 | T -0.021 ± 0.097 | S 0.079 ± 0.087 | G -0.039 ± 0.088 | D 0.095 ± 0.15
A13: T 0.051 ± 0.077 | Y -0.072 ± 0.084 | V 0.017 ± 0.055 | R 0.023 ± 0.041 | I 0.048 ± 0.1 | N 0.183 ± 0.11 | F -0.081 ± 0.086 | L -0.003 ± 0.04 | W 0.023 ± 0.063 | Q 0.106 ± 0.07 | M -0.036 ± 0.072 | P 0.162 ± 0.065 | D 0.121 ± 0.088 | H -0.179 ± 0.14 | G 0.123 ± 0.05 | E 0.189 ± 0.068
T4: Q -0.085 ± 0.092 | F -0.048 ± 0.12 | I 0.017 ± 0.15 | P -0.037 ± 0.095 | N 0.076 ± 0.23 | H -0.115 ± 0.1 | A 0.069 ± 0.089 | M -0.075 ± 0.18 | D 0.045 ± 0.14 | K -0.005 ± 0.1 | W -0.03 ± 0.17 | G -0.065 ± 0.11 | V 0.003 ± 0.09
R8: I -0.406 ± 0.21 | C -0.301 ± 0.26 | V -0.297 ± 0.14 | F -0.174 ± 0.2 | A -0.172 ± 0.099 | M -0.108 ± 0.1 | T -0.236 ± 0.14 | D 0.015 ± 0.2 | E 0.045 ± 0.13 | Q -0.097 ± 0.11 | L -0.369 ± 0.1 | Y -0.403 ± 0.24 | S -0.215 ± 0.09 | P -0.026 ± 0.12 | G -0.52 ± 0.12 | H -0.039 ± 0.14 | W -0.452 ± 0.18
R24: A 0.106 ± 0.082
T19: A -0.309 ± 0.14 | L -0.243 ± 0.063 | M -0.39 ± 0.11 | F -0.79 ± 0.47 | C -0.296 ± 0.27 | N -0.263 ± 0.17 | H 0.12 ± 0.12 | S -0.113 ± 0.13 | V -0.351 ± 0.12 | G -0.194 ± 0.097
